Data set [1] has as its system AKT. In words: AKT ser473 phosphorylation in Fao hepatoma cells. In kind it is cell-based. The settings on record: 10 μM for 1 hour. The procedure: Cell culture studies: Fao hepatoma cells (Sigma) were cultured in RPMI-1640 (Gibco) containing 10% FBS (Sigma). […] Human embryonic kidney (HEK) 293 cells were used to visualize localization of CMV-ΔMTS-BDK-GFP and control CMV-GFP constructs by confocal microscopy. Cells were plated and transfected in a 96 well glass bottom plate that had been pre-coated with poly-D lysine solution for 1-hour at room temperature. For transfection, cells were incubated in Opti-mem containing 1.5 μl of Mirus, TransIT-293 transfection reagent and 1 μg DNA per well. After 24 hours, mitochondrial and nuclear staining was performed in live cells using Image-IT Live Mito and nuclear labeling Kit (Cell permeant MitoTracker Red CMXRos (579/599 nm) and Hoechst 33342 (350/461 nm) ThermoFisher). Confocal images were captured using a Zeiss LSM 510 inverted confocal microscope using a 405 diode for Hoechst, Argon for GFP, and HeNe 561 for MitoTracker. Images were captured in one plane using a 63× oil objective. Each wavelength was acquired separately and then consolidated after acquisition.
Immunoblotting: Tissue lysates used for immunoblotting were prepared in Cell Lysis Buffer (Cell Signaling Technologies) containing protease inhibitor tablets (Roche), phosphatase inhibitor cocktails 2 and 3 (Sigma), and 10 mM PMSF. […] Immunoblots were developed using a Li-Cor Odyssey CLx and quantified using the Li-Cor software.

In data set [2] the target is 147 kDa GST-tagged human ACL (Sigma, SRP0288) (UniProt P53396).
The subject of data set [3] is BCKD E1 (an alpha2beta2 heterotetramer).
For data set [4], the target named is V5-tagged human ACL purified from Fao hepatoma cells (UniProt P53396).

On to `O=c1[nH]c2ccccc2n1C1CCN(Cc2ccc(-c3[nH]c4cc5ncnc5cc4nc3-c3ccccc3)cc2)CC1` [A6730], for which the “phosphorylation of ser473 on AKT” value in data set [1] is given as “reduce”.
Turning to “MBP-BDK (maltose-binding protein-tagged mature BDK lacking the mitochondrial-targeting pre-sequence; amino acid residue 31-382)”, in data set [2], the “incorporation of [gamma-32P]-phosphoryl group into ACL (purified proteins, SDS gel, autoradiograph)” value is “MBP-BDK also caused phosphorylation of ACL, albeit to a lesser extent than PKA”. Besides, in data set [3], the “32P phosphorylation of the purified e1a subunit of BCKDH (purified proteins, SDS gel, autoradiograph)” value is on record as “MBP-BDK also caused a robust increase in phosphorylation of the purified e1a subunit of BCKDH”.
On to “V5 tagged human BDK purified from Fao hepatoma cells”, for which, in data set [4], the “ACL phosphorylation on ser455 measured by immunoblot after mixing of the purified proteins with ATP” value is recorded as “This study confirmed that BDK specifically phosphorylates ser455 of the V5-tagged human ACL”.
Turning to “40 kDa catalytic subunit of bovine PKA (Promega, V5161)”, the “incorporation of [gamma-32P]-phosphoryl group into ACL (purified proteins, SDS gel, autoradiograph)” value in data set [2] is on record as “PKA caused a clear increase in ^32P labeling of ACL”. Moreover, in data set [3], the “32P phosphorylation of BCKDH (purified proteins, SDS gel, autoradiograph)” value is recorded as “PKA caused a lesser, but still clear increase in BCKDH phosphorylation”.

(Values after patent US20210267939A1, “COMPOSITIONS AND METHODS FOR TREATING NAFLD/NASH AND RELATED DISEASE PHENOTYPES” (priority 2018, published 2021).)
